From patent publication US20170321220A1 (INDIANA UNIVERSITY RESEARCH AND TECHNOLOGY, published 2017)
Where two headings read alike, the source gives them in different places.

Columns and labels:
[1] = biological target: P22 procapsid (PC) after removal of the Dec-binding sub-population (bacteriophage P22 (filing: P22 VLP from Salmonella typhimurium)) (UniProt P26747); assay: SEC-MALS, particle molecular weight after incubation with DecWT; PC control row 22.8±0.7
[2] = biological target: P22 procapsid (PC) after removal of the Dec-binding sub-population (bacteriophage P22 (filing: P22 VLP from Salmonella typhimurium)) (UniProt P26747); assay: SEC retention shift after incubation with DecWT; PC control row 0±0.001
[3] = biological target: P22 procapsid (PC) after removal of the Dec-binding sub-population (bacteriophage P22 (filing: P22 VLP from Salmonella typhimurium)) (UniProt P26747); assay: SEC-MALS, number of Dec monomers calculated from the difference between bound and control particle molecular weight; PC control row 0±43
[4] = biological target: P22 procapsid (PC) after removal of the Dec-binding sub-population (bacteriophage P22 (filing: P22 VLP from Salmonella typhimurium)) (UniProt P26747); assay: SEC-QELS, particle radius of hydration after incubation with DecWT; PC control row 26.4±0.5
[5] = biological target: T1, EX P22 VLP (expanded form of the bacteriophage P22 virus-like particle) (bacteriophage P22 (filing: P22 VLP from …, UniProt P26747 2-430)); assay: SEC-MALS, particle molecular weight with Dec bound; EX control row 20.5±0.2
[6] = biological target: T1, EX P22 VLP (expanded form of the …); assay: SPR, EX P22 immobilised, two-site fit, low-affinity site
[7] = biological target: T1, EX P22 VLP (expanded form of the …); assay: SPR, EX P22 immobilised, two-site global fit; site 2, column 'KD2 (nM)'
[8] = biological target: T1, EX P22 VLP (expanded form of the …); assay: SPR, EX P22 immobilised, two-site global fit; site 2, column 'Ka2 (M-1 s-1)'
[9] = biological target: T1, EX P22 VLP (expanded form of the …)
[10] = biological target: T1, EX P22 VLP (expanded form of the …); assay: SEC retention shift of P22 upon Dec binding; EX control row 0±0.008
[11] = biological target: T1, EX P22 VLP (expanded form of the …); assay: SEC-QELS, particle radius of hydration with Dec bound; EX control row 28.4±0.7
[12] = biological target: T1, EX P22 VLP (expanded form of the …); assay: SPR, EX P22 immobilised, two-site fit, tighter site
[13] = biological target: T1, EX P22 VLP (expanded form of the …); assay: SPR, EX P22 immobilised, single-site fit of the low concentrations
[14] = biological target: T1, EX P22 VLP (expanded form of the …); assay: SPR, two-site fit with the tight-site kd fixed at the value of the 4 h dissociation
[15] = biological target: T1, EX P22 VLP (expanded form of the …); assay: SPR, extended 4 h dissociation, two independent sites, weak site
[16] = biological target: T1, EX P22 VLP (expanded form of the …); assay: SPR, EX P22 immobilised, two-site fit, high-affinity site
[17] = biological target: T1, EX P22 VLP (expanded form of the …); assay: SPR, extended 4 h dissociation, two independent sites, tight site
[18] = biological target: T1, EX P22 VLP (expanded form of the …); assay: SPR, from the fitted parameters
[19] = biological target: T1, EX P22 VLP (expanded form of the …); remark: listed apart in the source
[20] = biological target: T1, EX P22 VLP (expanded form of the …); assay: SPR, single-site fit
[21] = biological target: T1, EX P22 VLP (expanded form of the …); assay: SPR, EX P22 immobilised, two-site global fit; site 1, column 'Kd1 (s-1 x 10-4)'

T1 sequence (P26747 2-430 limits assumed): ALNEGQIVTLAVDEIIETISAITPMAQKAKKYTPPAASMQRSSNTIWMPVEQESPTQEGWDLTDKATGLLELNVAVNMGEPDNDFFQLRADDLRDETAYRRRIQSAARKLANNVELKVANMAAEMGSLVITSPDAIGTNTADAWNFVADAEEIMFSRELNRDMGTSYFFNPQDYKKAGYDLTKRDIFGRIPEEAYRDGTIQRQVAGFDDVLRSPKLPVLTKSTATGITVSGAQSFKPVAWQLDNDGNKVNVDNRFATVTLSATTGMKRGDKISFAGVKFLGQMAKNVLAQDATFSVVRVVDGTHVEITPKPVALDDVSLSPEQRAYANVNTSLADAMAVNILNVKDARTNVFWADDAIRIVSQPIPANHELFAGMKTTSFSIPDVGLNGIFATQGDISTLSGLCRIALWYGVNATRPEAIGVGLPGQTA
Sequence of P22 procapsid (PC) after removal of the Dec-binding sub-population (bacteriophage P22 (filing: P22 VLP from Salmonella typhimurium)) (P26747 2-430, chain 1 of 2): as the sequence (P26747 2-430 limits assumed) above
Sequence of P22 procapsid (PC) after removal of the Dec-binding sub-population (bacteriophage P22 (filing: P22 VLP from Salmonella typhimurium)) (P26748 whole entry, chain 2 of 2, further chain): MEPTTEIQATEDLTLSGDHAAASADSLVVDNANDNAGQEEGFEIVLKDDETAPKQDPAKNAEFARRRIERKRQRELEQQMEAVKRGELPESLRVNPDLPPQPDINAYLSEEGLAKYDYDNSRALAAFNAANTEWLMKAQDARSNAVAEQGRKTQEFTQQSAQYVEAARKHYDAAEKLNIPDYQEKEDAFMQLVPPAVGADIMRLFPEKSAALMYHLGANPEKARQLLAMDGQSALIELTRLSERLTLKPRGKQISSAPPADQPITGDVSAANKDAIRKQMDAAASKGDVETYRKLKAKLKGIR

Molecule | MW (MDa) [5] | Kd [6] | kon [8] | koff [9] | retention shift [10] | Rh (nm) [11] | Kd [12] | koff [12] | kon [12] | Kd [9] | further results
DecWT |  |  |  |  |  |  |  |  |  |  | MW (MDa) [1]: 23.2 MDa; retention shift [2]: 0.03 min; Dec monomers [3]: 24 monomers; Rh (nm) [4]: 26.6 nm
DecSelf (Dec fused at its C-terminus to the 21 amino acid CD47 mimic Self-peptide) (other) MGSSHHHHHHSQDPMANPNFTPSWPLYKDADGVYVSALPIKAIKYANDGSANAEFDGPYADQYMSAQTVAVFKPEVGGYLFRSQYGELLYMSKTAFEANYTSASGSVANAETADKLSTARTITLTGAVTGSASFDGSANVTIETTSGSELGNYTCEVTELTREGETIIELK | 22.6 MDa | 146 nM | 2190 M⁻¹ s⁻¹ | 0.00323 s⁻¹ | 0.5 min | 29.6 nm | 18.3 nM | 0.0002 s⁻¹ | 11200 M⁻¹ s⁻¹ |  | Kd [7]: 146 nM
DecWT (other, also called Dec with an N-terminal his-tag) MGSSHHHHHHSLVPRGSQDPMANPNFTPSWPLYKDADGVYVSALPIKAIKYANDGSANAEFDGPYADQYMSAQTVAVFKPEVGGYLFRSQYGELLYMSKTAFEANYTSASGSVANAETADKLSTARTITLTGAVTGSASFDGSANVTIETTSGS | 23 MDa | 1500 nM |  | 0.00182 s⁻¹ | 0.619 min | 29.6 nm |  |  |  | 446 nM | koff [6]: 0.00298 s⁻¹; kon [6]: 1980 M⁻¹ s⁻¹; Kd [13]: 24 nM; koff [13]: 0.00033 s⁻¹; kon [13]: 13800 M⁻¹ s⁻¹; Kd [14]: 0.255 nM; koff [15]: 0.00095 s⁻¹; Kd [16]: 9.2 nM; koff [16]: 0.000106 s⁻¹; kon [16]: 11500 M⁻¹ s⁻¹; koff [17]: 3.2e-06 s⁻¹; half-life of binding at the tight-site [18]: ≥ 60 h
DecΔ20 (Dec lacking the first 20 N-terminal residues) (other) MGSSHHHHHHSQDPVSALPIKAIKYANDGSANAEFDGPYADQYMSAQTVAVFKPEVGGYLFRSQYGELLYMSKTAFEANYTSASGSVANAETADKLSTARTITLTGAVTGSASFDGSANVTIETTSGS |  |  |  | 0.00024 s⁻¹ |  |  |  |  |  | 3450 nM | Kd [19]: 3.5 µM; fold reduction in KD from the high-affinity site of DecWT [20]: > 300 fold
DecΔ11 (Dec lacking the first 11 N-terminal residues) (other) MGSSHHHHHHSQDPLYKDADGVYVSALPIKAIKYANDGSANAEFDGPYADQYMSAQTVAVFKPEVGGYLFRSQYGELLYMSKTAFEANYTSASGSVANAETADKLSTARTITLTGAVTGSASFDGSANVTIETTSGS | 23.6 MDa |  | 38300 M⁻¹ s⁻¹ | 0.0044 s⁻¹ | 0.595 min | 30.1 nm |  |  |  |  | koff [21]: 4.4e-05 s⁻¹; kon [9]: 9200 M⁻¹ s⁻¹
DecmCD40L (Dec fused at its C-terminus to the soluble region of murine CD40L) (ligand) MGSSHHHHHHSQDPMANPNFTPSWPLYKDADGVYVSALPIKAIKYANDGSANAEFDGPYADQYMSAQTVAVFKPEVGGYLFRSQYGELLYMSKTAFEANYTSASGSVANAETADKLSTARTITLTGAVTGSASFDGSANVTIETTSGSELQRGDEDPQIAAHVVSEANSNAASVLQWAKKGYYTMKSNLVMLENGKQLTVKREGLYYVYTQVTFCSNREPSSQRPFIVGLWLKPSSGSERILLKAANTHSSSQLCEQQSVHLGGVFELQAGASVFVNVTEASQVIHRVGFSSFGLLKL |  | 1420 nM | 4820 M⁻¹ s⁻¹ | 0.0068 s⁻¹ |  |  | 30.8 nM | 0.0002 s⁻¹ | 6440 M⁻¹ s⁻¹ |  | 
